The values below come from the supplement of paper PMC9112550, “Optimization of the antimicrobial peptide Bac7 by deep mutational scanning” (BMC Biology, 2022).
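Further: peptides expressed intracellularly from a pBAD plasmid library in pooled LB shake-flask culture, induced with 0.3% L-arabinose, DNA abundance read by NGS, three biological replicates, DESeq2 with apeglm shrinkage.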

The test system of this data set is Escherichia coli TOP10. In words: shrunken log2 fold change of peptide-encoding DNA abundance (4.5 h post-induction vs induction); higher = less antimicrobial activity (less host growth inhibition). Particulars: time post-induction: 4.5 h; library: site-saturation at positions 5, 18, 19, 20.
Regarding RRIRHRPPRLPRPRPRPSYFPRP, the “shrunken log2 fold change” value was -0.628.

Turning to RRIRGRPPRLPRPRPRPEQTPRP, the “shrunken log2 fold change” value is 0.388. Regarding RRIRWRPPRLPRPRPRPNMNPRP, the “shrunken log2 fold change” value is -0.345. For the sequence RRIRHRPPRLPRPRPRPMSWPRP, the “shrunken log2 fold change” value was -0.106. Turning to RRIRYRPPRLPRPRPRPITLPRP, the “shrunken log2 fold change” value was -0.323. Then RRIRDRPPRLPRPRPRPYCQPRP, with -0.226; and RRIRHRPPRLPRPRPRPFALPRP, with 0.051; and RRIRHRPPRLPRPRPRPFWVPRP, with -0.00136. Then RRIRHRPPRLPRPRPRPQKHPRP, with -0.992; and RRIRERPPRLPRPRPRPKESPRP, with 0.0252; and RRIRMRPPRLPRPRPRPDFGPRP, with 0.0563. Consider RRIRARPPRLPRPRPRPPGKPRP, for which the “shrunken log2 fold change” value is 0.188. Under RRIRARPPRLPRPRPRPQAQPRP stands 0.664; under RRIRFRPPRLPRPRPRPNFAPRP, -0.125; under RRIRGRPPRLPRPRPRPRGKPRP, 0.341. Regarding RRIRWRPPRLPRPRPRPKILPRP, the “shrunken log2 fold change” value was -0.0469. Consider RRIRHRPPRLPRPRPRPICPPRP, for which the “shrunken log2 fold change” value was -0.144. Take RRIRERPPRLPRPRPRPWPCPRP: the “shrunken log2 fold change” value was 0.151. Turning to RRIRFRPPRLPRPRPRPMLRPRP, the “shrunken log2 fold change” value is 0.0268.

In the case of RRIRQRPPRLPRPRPRPCCAPRP, the “shrunken log2 fold change” value was 0.0773.

For RRIRSRPPRLPRPRPRPSATPRP, the “shrunken log2 fold change” value is 0.168. RRIRKRPPRLPRPRPRPVITPRP: the “shrunken log2 fold change” value is -0.249. RRIRLRPPRLPRPRPRPTNEPRP: the “shrunken log2 fold change” value was -0.127. Under RRIRIRPPRLPRPRPRPHQKPRP stands -0.0756. Turning to RRIRRRPPRLPRPRPRPYTNPRP, the “shrunken log2 fold change” value is -0.95. As for RRIRLRPPRLPRPRPRPARDPRP, the “shrunken log2 fold change” value worked out at 0.426. As for RRIRFRPPRLPRPRPRPYILPRP, the “shrunken log2 fold change” value is -1.31.

On to RRIRFRPPRLPRPRPRPHNSPRP, for which the “shrunken log2 fold change” value was -0.194.

For the sequence RRIRWRPPRLPRPRPRPIAFPRP, the “shrunken log2 fold change” value came to 0.171. With RRIRSRPPRLPRPRPRPAICPRP, the “shrunken log2 fold change” value stood at 0.147.

For RRIRKRPPRLPRPRPRPYGTPRP, the “shrunken log2 fold change” value is -0.272. In the case of RRIRNRPPRLPRPRPRPVCMPRP, the “shrunken log2 fold change” value was -0.0349. Regarding RRIRIRPPRLPRPRPRPGWDPRP, the “shrunken log2 fold change” value came to 0.105.

For RRIRYRPPRLPRPRPRPGYVPRP, the “shrunken log2 fold change” value is -1.05. Under RRIRMRPPRLPRPRPRPKPFPRP stands 0.236; under RRIRERPPRLPRPRPRPPSHPRP, -0.209. Regarding RRIRMRPPRLPRPRPRPHRWPRP, the “shrunken log2 fold change” value came out at 0.478. RRIRDRPPRLPRPRPRPQYVPRP: the “shrunken log2 fold change” value is -0.229. For the sequence RRIRRRPPRLPRPRPRPKNWPRP, the “shrunken log2 fold change” value came out at 0.381. RRIRDRPPRLPRPRPRPARAPRP: the “shrunken log2 fold change” value is 0.928. Under RRIRFRPPRLPRPRPRPHNEPRP stands -0.626; under RRIRSRPPRLPRPRPRPDSWPRP, 0.0247; under RRIRERPPRLPRPRPRPELVPRP, 0.0791. As to RRIRHRPPRLPRPRPRPSDTPRP, the “shrunken log2 fold change” value is -1.05. Consider RRIRIRPPRLPRPRPRPWFTPRP, for which the “shrunken log2 fold change” value was -0.563. With RRIRRRPPRLPRPRPRPQLPPRP, the “shrunken log2 fold change” value came out at 0.283. In the case of RRIRMRPPRLPRPRPRPMDTPRP, the “shrunken log2 fold change” value is -0.00187.

On to RRIRWRPPRLPRPRPRPFNCPRP, for which the “shrunken log2 fold change” value was -0.118. In the case of RRIRYRPPRLPRPRPRPMFMPRP, the “shrunken log2 fold change” value is -1.22.

Take RRIRSRPPRLPRPRPRPHALPRP: the “shrunken log2 fold change” value turned out to be 0.0303.

Take RRIRPRPPRLPRPRPRPYTAPRP: the “shrunken log2 fold change” value is -1.06.

As for RRIRERPPRLPRPRPRPHFGPRP, the “shrunken log2 fold change” value was -0.0492. Turning to RRIRARPPRLPRPRPRPGIQPRP, the “shrunken log2 fold change” value was -0.041. As for RRIRNRPPRLPRPRPRPEGHPRP, the “shrunken log2 fold change” value is 0.00677. Regarding RRIRWRPPRLPRPRPRPFHLPRP, the “shrunken log2 fold change” value was -0.818. Take RRIRDRPPRLPRPRPRPARRPRP: the “shrunken log2 fold change” value was 0.59. Take RRIRFRPPRLPRPRPRPFPHPRP: the “shrunken log2 fold change” value is -0.142. With RRIRMRPPRLPRPRPRPQTPPRP, the “shrunken log2 fold change” value worked out at 2.18. Take RRIRGRPPRLPRPRPRPTWYPRP: the “shrunken log2 fold change” value is 0.159. For RRIRFRPPRLPRPRPRPHPWPRP, the “shrunken log2 fold change” value is -0.212. Regarding RRIRTRPPRLPRPRPRPNVEPRP, the “shrunken log2 fold change” value is -0.00865.

For RRIRKRPPRLPRPRPRPDMTPRP, the “shrunken log2 fold change” value came to 1.34. As to RRIRNRPPRLPRPRPRPHLRPRP, the “shrunken log2 fold change” value is -0.447.

Consider RRIRHRPPRLPRPRPRPRNQPRP, for which the “shrunken log2 fold change” value came to 0.0527. Take RRIRNRPPRLPRPRPRPFYEPRP: the “shrunken log2 fold change” value is -0.233.

For the sequence RRIRYRPPRLPRPRPRPVISPRP, the “shrunken log2 fold change” value came out at 0.0433.

Turning to RRIRERPPRLPRPRPRPVADPRP, the “shrunken log2 fold change” value is -0.0439. Under RRIRPRPPRLPRPRPRPEHRPRP stands 0.0967. In the case of RRIRWRPPRLPRPRPRPVKGPRP, the “shrunken log2 fold change” value is -0.0905. Under RRIRGRPPRLPRPRPRPKLEPRP stands 0.507; under RRIRCRPPRLPRPRPRPGRIPRP, -0.231. Consider RRIRMRPPRLPRPRPRPIPYPRP, for which the “shrunken log2 fold change” value was determined as 0.013. For the sequence RRIRWRPPRLPRPRPRPDLVPRP, the “shrunken log2 fold change” value was found to be 0.0575. Take RRIRPRPPRLPRPRPRPNWLPRP: the “shrunken log2 fold change” value was determined as 0.124. Take RRIRDRPPRLPRPRPRPFCPPRP: the “shrunken log2 fold change” value was -0.277. Take RRIRLRPPRLPRPRPRPNGKPRP: the “shrunken log2 fold change” value was -0.0324. As to RRIRSRPPRLPRPRPRPVMFPRP, the “shrunken log2 fold change” value was -0.118. RRIRCRPPRLPRPRPRPHTWPRP: the “shrunken log2 fold change” value is -0.216. With RRIRRRPPRLPRPRPRPLMLPRP, the “shrunken log2 fold change” value is -0.108. Then RRIRDRPPRLPRPRPRPVSGPRP, with 0.088; and RRIRSRPPRLPRPRPRPGFEPRP, with 0.418. Then RRIRGRPPRLPRPRPRPVMDPRP, with 0.96; and RRIRQRPPRLPRPRPRPAVWPRP, with 0.939; and RRIRHRPPRLPRPRPRPECAPRP, with 0.249. Turning to RRIRRRPPRLPRPRPRPSKDPRP, the “shrunken log2 fold change” value came out at 0.0136. Then RRIRRRPPRLPRPRPRPRWVPRP, with 0.407. For the sequence RRIRTRPPRLPRPRPRPKCIPRP, the “shrunken log2 fold change” value is -0.292.

On to RRIRPRPPRLPRPRPRPDCVPRP, for which the “shrunken log2 fold change” value was -0.0187. In the case of RRIRIRPPRLPRPRPRPQHSPRP, the “shrunken log2 fold change” value was -0.463.

Consider RRIRQRPPRLPRPRPRPSLWPRP, for which the “shrunken log2 fold change” value was 0.337. For RRIRKRPPRLPRPRPRPTNMPRP, the “shrunken log2 fold change” value was -0.155.

For RRIRLRPPRLPRPRPRPYNNPRP, the “shrunken log2 fold change” value is -1.03. Then RRIRMRPPRLPRPRPRPRDIPRP, with -0.0288. Under RRIRHRPPRLPRPRPRPAMNPRP stands -0.0974. For the sequence RRIRERPPRLPRPRPRPGGGPRP, the “shrunken log2 fold change” value worked out at 0.855. Under RRIRMRPPRLPRPRPRPETCPRP stands 1.67; under RRIRDRPPRLPRPRPRPRYVPRP, -0.0272.

In the case of RRIRHRPPRLPRPRPRPRHMPRP, the “shrunken log2 fold change” value was -0.0251. Regarding RRIRDRPPRLPRPRPRPLHDPRP, the “shrunken log2 fold change” value is -0.0658. For the sequence RRIRKRPPRLPRPRPRPIDCPRP, the “shrunken log2 fold change” value was 0.0653. Under RRIRKRPPRLPRPRPRPMQQPRP stands -0.000844; under RRIRKRPPRLPRPRPRPFPDPRP, -0.112; under RRIRRRPPRLPRPRPRPQCAPRP, 0.647.

Regarding RRIRKRPPRLPRPRPRPDVWPRP, the “shrunken log2 fold change” value was found to be 0.679.

As for RRIRDRPPRLPRPRPRPMSGPRP, the “shrunken log2 fold change” value was -0.0837.

For the sequence RRIRKRPPRLPRPRPRPVNWPRP, the “shrunken log2 fold change” value is 0.192. On to RRIRERPPRLPRPRPRPAPEPRP, for which the “shrunken log2 fold change” value amounted to 0.236. Then RRIRMRPPRLPRPRPRPLNWPRP, with 0.225; and RRIRQRPPRLPRPRPRPVAQPRP, with 0.24. For the sequence RRIRHRPPRLPRPRPRPEPKPRP, the “shrunken log2 fold change” value is -0.0206. On to RRIRIRPPRLPRPRPRPLSNPRP, for which the “shrunken log2 fold change” value was -0.893.

For RRIRYRPPRLPRPRPRPYRGPRP, the “shrunken log2 fold change” value is -0.765. As to RRIRCRPPRLPRPRPRPVCQPRP, the “shrunken log2 fold change” value was -0.102. On to RRIRFRPPRLPRPRPRPCMAPRP, for which the “shrunken log2 fold change” value was -0.594. Then RRIRPRPPRLPRPRPRPWNPPRP, with -0.496; and RRIRMRPPRLPRPRPRPEMKPRP, with 2.5; and RRIRERPPRLPRPRPRPLLWPRP, with -0.0136. Turning to RRIRTRPPRLPRPRPRPPINPRP, the “shrunken log2 fold change” value is -0.338. With RRIRARPPRLPRPRPRPSNGPRP, the “shrunken log2 fold change” value was -0.318.

For RRIRVRPPRLPRPRPRPCQVPRP, the “shrunken log2 fold change” value is -0.0502.

On to RRIRLRPPRLPRPRPRPYQYPRP, for which the “shrunken log2 fold change” value was -0.151. For RRIRVRPPRLPRPRPRPQPSPRP, the “shrunken log2 fold change” value worked out at 0.00981. RRIRIRPPRLPRPRPRPDWLPRP: the “shrunken log2 fold change” value was -0.166.

As to RRIRLRPPRLPRPRPRPPLQPRP, the “shrunken log2 fold change” value came out at 0.67. As to RRIRQRPPRLPRPRPRPFPIPRP, the “shrunken log2 fold change” value is -0.0231.
